In US20230348569A1:

Tests used:
[1] = target: SARS-CoV-2 RBD extracellular domain expressed with a C-terminal myc-myc-hexahistidine tag (SARS-COV-2 RBD-MMH) (SARS-CoV-2); details: remark: other sources report otherwise
[2] = target: SARS-CoV-2-S-RBD-mmH (SARS-CoV-2); details: remark: other sources report otherwise

Binder	t½ (dissociative half-life) [1]	Binding Signal (absorbance at 450 nm) (absorbance at 450 nm) [2]
mAb11004 (antibody, V domains shown) VH: QVQLVESGGGVVQPGRSLRLSCVASGFTFSIYGMDWVRQAPGKGLEWVAVISYDGSNKYYADSVKGRFTISRDNSKNTLYLQMNSLRPEDTAVYYCAKDREAAADAFDIWGQGTMVTVSS VL: DIQMTQSPSSVSASVGDRVTITCRASQGISSWLAWYQQKPGKAPKLLIYAASSLHSGVPSRFSGSGSGTDFTLTISSLQPEDFATYYCQQANSFRLTFGGGTKVEIK	3.7 min	2.91
mAb11006 (antibody, V domains shown) VH: EVQLVESGGGLVQPGGSLRLSCAASGFIVSRNYMSWVRQAPGKGLEWVSVIYSGGSTFYADSVKGRFTISRHNSKNTLYLQMNSLKAEDTAVYYCARELRGYFDYWGQGTLVTVSS VL: DIQLTQSPSFLSASVGDRVTITCWASQGISSYLAWYQQKPGKAPKLLIYAASTLQSGVPSRFSGSGSGTEFTLTISSLQPEDFATYYCQLLNSYPYTFGQGTKLEIK	31.5 min	2.62
mAb11008 (antibody, V domains shown) VH: EVQLVESGGGLVQPGGSLRLSCAASGFTVSSNYMTWVRQAPGKGLEWVSVIYSGGSTFYADSVKGRFTISRHNSENTLYLQMNSLRAEDTAVYYCARDLAAAGTDYWGQGALVTVSS VL: DIQLTQSPSFLSASVGDRVTITCWASQGISSYLAWYQQKPGKAPKLLIYAASTLQSGVPSRFSGSGSGTEFTLTISSLQPDDFATYYCQHLNSYLYTFGQGTKLEIK	2.9 min	2.91
mAb10998 (antibody, V domains shown) VH: EVQLVESGGGLVHPGGSLRLSCAASGLTVSSNYMSWVRQAPGKGLEWVSVIYSGGSTYYADSVKGRFTISRHNSKNTLFLQMNSLRAEDTAVYYCARDRPITGTTLDVWGQGTTVTVSS VL: DIQMTQSPSSLFASVGDRVTITCRASQSISSYLNWYQQKPGKAPKLLIYAASSLQSGVPSRFSGSGSGTDFTLTISSLQPEDFAFYYCQQTYSTPPITFGQGTRLEIK	0.5 min	2.83
